We go through 1 molecule from patent publication US8722856B2, “Anti-MUC1 antibody” (National University Corporation Hokkaido University, priority 2008, dated 2014).

Data set [1] concerns the target T1, 2,3-ST(DT*R)-20 (Compound No. 2) (Homo sapiens, UniProt P15941).
T1 construct: Synthesis of MUC1 Tn20-mer Glycopeptide; made in house; host or cells: chemical solid-phase synthesis, then enzymatic sialylation
The data set is described as follows: Sugar chain specificity, competitive ELISA against Biotin-Tn(DT*R)-100. Type of data set: binding. As to conditions: glycopeptide 2,3-ST (Compound No. 2), reference = 100%. On the procedure:
(§1) Such specificity can be expressed by a difference in cross reactivity. The cross reactivity is obtained by a calculation equation of (IC50 for cancer-associated structure 2,3ST/IC50 for sugar chain structure to be compared)×100(%). As used herein, inclusion of specificity refers to a difference of 2 fold or more.
(§2) Ten days after cell fusion, screening of a specific antibody-producing cell was performed. ELISA was used in screening is as follows. To each well of a 384-well microtiter plate (manufactured by Nunc) 35 μl of a Tris buffer (50 mM Tris-HCl, pH 7.5) containing 0.35 μg of an anti-mouse IgG antibody (manufactured by Shibayagi Co., Ltd.) was added to immobilize the antibody at 4° C. for 16 hours. After these wells were washed with 90 μl of a washing solution (physiological saline containing 0.01% Tween 20) once, 200 μl of BLOCK ACE (manufactured by Dainippon Sumitomo Pharma Co., Ltd.) was added, and this was allowed to stand at room temperature for 2 hours for blocking (an anti-mouse IgG antibody solid-phased plate). After each well was washed with 90 μl of a washing solution once, 10 μl of a hybridoma culture supernatant, 10 μl of a buffer A (50 mM Tris buffer containing 0.5% bovine serum albumin, 0.01% Tween 80, 0.05% Proclin 150, and 0.15 M. NaCl, pH 7.4), and 10 μl of a buffer A containing 0.01 ng of Biotin-2,3-ST(DT*R)-20 (Compound No. 16 of Table 1) and 2 ng of Streptavidin-HRP (manufactured by PIERCE) were added to perform a reaction at 4° C. for 16 hours. Then, after each well was washed with 90 μl of a washing solution three times, 25 μl of TMB+-Substrate-Chromogen (manufactured by DAKO) was added to develop a color at room temperature for 30 minutes, 25 μl of 0.05 M sulfuric acid was added to stop the reaction, and absorbance was measured at 450 nm. […] Using a mouse monoclonal antibody isotyping ELISA kit (manufactured by BD Bioscience), a subclass of the antibody was determined and, as a result, an isotype of 1B2 was IgG2a.
(§3) Fifteen (15) μl of a buffer A containing a MUC1 antibody was added to an anti-mouse IgG antibody solid-phased plate and the reaction was allowed to proceed at room temperature for 3 hours. […] Then, after each well was washed with 90 μl of a washing solution three times, 15 μl of TMB+-Substrate-Chromogen (manufactured by DAKO) was added to develop a color at room temperature for 30 minutes, 15 μl of 0.05 M sulfuric acid was added to stop the reaction, and absorbance at 450 nm was measured.
On the technique in general: ELISA stands for enzyme-linked immunosorbent assay.

Data set [2] has as its target T2, 2,3-ST(VT*S)-20 (Compound No. 12) (Homo sapiens, UniProt P15941).
T2 construct: Synthesis of MUC1 Tn20-mer Glycopeptide; made in house; host or cells: chemical solid-phase synthesis with enzymatic sialylation
Described as above. Type of data set: binding. As to conditions: glycopeptide 2,3ST(VT*S) (Compound No. 12). How it is done:
as §1, §2, §3

Data set [3] concerns the target T3, 2,3ST6G(DT*R)-20 (Compound No. 6) (Homo sapiens, UniProt P15941).
T3 construct: Synthesis of MUC1 Tn20-mer Glycopeptide; made in house; host or cells: chemical solid-phase synthesis (Compound 5), then enzymatic sialylation
The data set is described as above. It counts as binding. As to conditions: glycopeptide 2,3ST6G (Compound No. 6). How it is done:
as §1, §2, §3

The target of data set [4] is T4, 2,3ST6L(DT*R)-20 (Compound No. 7) (Homo sapiens, UniProt P15941).
T4 construct: Synthesis of MUC1 Tn20-mer Glycopeptide; made in house; host or cells: chemical solid-phase synthesis (Compound 5), then enzymatic sugar extension
The description is as above. It counts as binding. As to conditions: glycopeptide 2,3ST6L (Compound No. 7). On the procedure:
as §1, §2, §3

In data set [5] the target is T5, 40 (Compound No. 13), non-glycosylated (Homo sapiens, UniProt P15941).
T5 construct: made in house; host or cells: chemical solid-phase synthesis
The data set is described as above. As to conditions: Non-glycosylated peptide (Compound No. 13). It counts as binding. On the procedure:
as §1, §2, §3

In data set [6] the target is T6, STn(DT*R)-20 (Compound No. 4) (Homo sapiens, UniProt P15941).
T6 construct: Synthesis of MUC1 Tn20-mer Glycopeptide; made in house; host or cells: chemical solid-phase synthesis
The description is as above. Type of data set: binding. As to conditions: glycopeptide STn (Compound No. 4). On the procedure:
as §1, §2, §3

The target of data set [7] is T7, T(DT*R)-20 (Compound No. 1) (Homo sapiens, UniProt P15941).
T7 construct: Synthesis of MUC1 Tn20-mer Glycopeptide; made in house; host or cells: chemical solid-phase synthesis
Described as above. It counts as binding. As to conditions: glycopeptide T (Compound No. 1). On the procedure: as §1, §2, §3

Data set [8] deals with T8, Tn(DT*R)-20 (Compound No. 3) (Homo sapiens, UniProt P15941).
T8 construct: Synthesis of MUC1 Tn20-mer Glycopeptide; made in house; host or cells: chemical solid-phase synthesis
The description is as above. Type of data set: binding. As to conditions: glycopeptide Tn (Compound No. 3). How it is done:
as §1, §2, §3

Data set [9] deals with T9, dST(DT*R)-20 (Compound No. 11) (Homo sapiens, UniProt P15941).
T9 construct: Synthesis of MUC1 Tn20-mer Glycopeptide; made in house; host or cells: chemical solid-phase synthesis with enzymatic sialylation
Described as above. Type of data set: binding. As to conditions: glycopeptide dST (Compound No. 11). How it is done: as §1, §2, §3

The test system of data set [10] is Biotin-Tn(DT*R)-20, -40, -60, -80, -100 (Compound Nos. 17-21). Kind of data set: Tandem repeat dependency ELISA on Streptavidin solid-phased plate. Type of data set: binding. How it is done:
To each well of a 384-well microtiter plate (manufactured by Nunc) 35 μl of a Tris buffer (50 mM Tris-HCl, pH 7.5) containing 0.35 μg of Streptavidin (manufactured by PIERCE) was added to perform immobilization at 4° C. for 16 hours. After these wells were washed with 90 μl of a washing solution (physiological saline containing 0.01% Tween 20) once, 200 μl of Block Ace (manufactured by Dainippon Sumitomo Pharma Co., Ltd.) was added, and this was allowed to stand at room temperature for 2 hours, to perform blocking (a Streptavidin solid-phased plate). […] Then, after each well was washed with 90 μl of a washing solution three times, 15 μl of TMB+-Substrate-Chromogen (manufactured by DAKO) was added to develop a color at room temperature for 30 minutes, 15 μl of 0.05 M sulfuric acid was added to stop the reaction, and absorbance at 450 nm was measured. […] Therefore, the antibody of the present invention can be said to have an affinity for Tn-100-mer biotin of lower than 1.0×10^−9 (M), and can be said to have the ability to bind to a Tn20-mer tandem structure fragment. More particularly, it can also be said that the antibody of the present invention has a ratio (A100/A20) of absorbance at 450 nm in the case of use of Tn20-mer biotin (A20) and absorbance at 450 nm in the case of use of Tn100-mer biotin (A100), of 2 or lower.

For data set [11], the system named is human breast cancer cell strains (T-47D).
Method: Antibody-dependant cytotoxicity was analyzed by a chromium release test. Human peripheral mononuclear cell (PBMC) was separated from peripheral blood of a healthy person using Ficoll-paque PLUS (manufactured by GE Healthcare) according to the package insert. DMEM containing 10% FCS was added to the separated PBMC so that the number became 4×10^6/ml.
50 μl of physiological saline containing 1.85 MBq ^51Cr (manufactured by Perkin Elmer) was added to 200 μl of DMEM containing 1×10^6 human breast cancer cell strains (T-47D) and human mammary gland epithelial cell strains (184A1) and the reaction was allowed to proceed at 37° C. for 1 hour. Thereafter, cells were washed with 10 ml of DMEM three times, and DMEM was added to 5×10^4 cells/ml. […] Thereafter, 100 μl of PBMC was added and the reaction was allowed to proceed at 37° C. for 2 hours. Thereafter, the plate was centrifuged at 500×g for 5 minutes at room temperature and γ-ray of 100 μl of the supernatant was measured with ARC-7001 (manufactured by Aloka). Antibody-specific cytotoxicity (%) was obtained using the following calculation equation. Cytotoxicity(%)=(experimental value−natural release)/(maximum release−natural release)×100

T5 sequence (P15941 136-175): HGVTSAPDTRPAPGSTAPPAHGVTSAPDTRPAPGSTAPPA
T8 sequence (P15941 136-155): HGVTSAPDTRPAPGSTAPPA

B1: 1B2: mouse monoclonal anti-MUC1 antibody, isotype IgG2a, clone from immunization with 2,3-ST(DT*R)-20 conjugated to BSA (antibody, V domains shown)
VH: MEWIWIFLFILSGTAGVQSQVQLQQSGAELARPGASVKLSCKASGYTFTNYGLSWVKQRTGQGLEWIGENHPGSGIIYHNEKFRGKATLTADKSSSTAYVQLSSLTSEDSAVYFCARSSGTRGFAYWGQGTLVTVSA
VL: MKLPVRLLVLMFWIPASSSDVLMTQTPLSLPVSLGDQASISCRSSQSIVHSNGNTYLEWYLQKPGQSPKLLIYKVSNRFSGVPDRFSGSGSGTDFTLKISRVEAEDLGVYYCFQGSHGPWTFGGGTKLEIKRA
modifications: Antibody 1B2 VH sequence; Antibody 1B2 VL sequence
As for B1, the “Cross reactivity letting 2,3-ST to be 100%” value is on record as 100% in data set [1]; less than 0.030% in data set [2]; 0.061% in [3]; 0.063% in [4]; 0.13% in data set [5]; 0.36% in data set [6]. The figures for the “Cross reactivity letting 2,3-ST to be 100%” value in [7], in [8] and in data set [9] were 96%, 81% and 3.0%, respectively. The “reactivity by peptide chain length” value in [10] (Biotin-Tn(DT*R)-40, -60, -80, -100) is “approximately the same reactivity”. The “dependency on the length of the tandem repeat” value in [10] (absorbance at 450 nm, 20-mer to 100-mer) is listed as “low dependency on a length of the tandem repeat”. Further, the Antibody-specific cytotoxicity entry in data set [11] is on record as “about 15%”.
